Reference: US20260132200A1 (Regeneron, published 2026)

T1: human CD3 expressed on cells (Jurkat, a CD3+ human T-cell line; human T cells) (human, UniProt P07766 23-126; P04234 22-100)
T1 chain 1: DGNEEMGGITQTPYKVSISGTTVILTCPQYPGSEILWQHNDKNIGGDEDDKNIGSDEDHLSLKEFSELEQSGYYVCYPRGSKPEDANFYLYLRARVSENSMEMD
T1 chain 2: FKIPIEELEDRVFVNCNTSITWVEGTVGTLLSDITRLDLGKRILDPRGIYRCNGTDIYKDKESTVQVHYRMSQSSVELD

B1: H2M2690N (antibody, mouse IgG2, V domains shown)
VH: EVQLVESGGGLVQPGRSLRLSCAASGFTFDDYTMHWVRQAPGKGLEWVSGISWNSGSIGYADSVKGRFTISRDNAKKSLYLQMNSLRAEDTALYYCAKDNSGYGHYYYGMDVWGQGTTVTVAS
VL: EIVMTQSPATLSVSPGERATLSCRASQSVSSNLAWYQQKPGQAPRLLIYGASTRATGIPARFSGSGSGTEFTLTISSLQSEDFAVYYCQHYINWPLTFGGGTKVEIK
B2: H2M2862N (antibody, mouse IgG2, V domains shown)
VH: QVQLVESGGGVVQPGRSLRLSCAASGFTFRSYGMHWVRQAPGKGLEWVAMIYYDGNNKKYADSVRGRFTISRDNSKNTLYLQMNSLRVEDTAVYFCARGPGYNWLDPWGQGTLVTVSS
VL: EIVMTQSPATLSVSPGERATLSCRASQSVSRNLAWYQQKPGQAPRLLIYGASTRATDIPARFSGSGSGTEFILNISSLQSEDFALYYCQQYSNWPLTFGGGTEVEIK
B3: H1M2712N (antibody, mouse IgG1, V domains shown)
VH: EVQLVESGGGLVQPGGSLRLSCAATGFTFDDFTMHWVRQAPGKGLEWVSGISWNSGSIGYVDSVKGRFTISRDNAKNSLYLQMNSLRAEDTALYYCAKDNSGYGYYYYGMDVWGQGTTVTVSS
VL: EIVMTQSPATLSVSPGERATLSCRASHSVSRNSAWYQQKPGQAPRLLIYGASTRATGIPARFSGSGSGTEFTLTISSLQSEDFAIYYCQQYNNWPLTFGGGTKVEIK
B4: H2M2774N (antibody, mouse IgG2, V domains shown)
VH: QVQLVESGGGVVQPGRSLRLSCVASGFTFRSYGMHWVRQAPGKGLQWVAMIYYDGKNKYYADSVRGRFTISRDNSKNTLYLQMNSLRAEDTAMYFCARGPGYNWLDPWGQGTLVTVSS
VL: EIVMTQSPATLSVSPGERATLSCRASQRISSNLAWYQQKPGQAPRLLIYGASTRATGSPARFSGSGSGTEFTLTISSLQSEDVAVYYCQQHNNWPLTFGGGTKVEIK
B5: H1M2692N (antibody, mouse IgG1, V domains shown)
VH: EVQLVESGGGLVQPGGSLRLSCAASGFSFDDYTMHWVRQPPGKGLEWVSGISWNSGSIGYADSVKGRFTISRDNAKNSLYLQMNSLRAGDTALYYCAKDNSGYGYYYYYGMDVWGQGTTVTVSS
VL: EIVMTQSPATLSVSPGERATLSCRASQSVSSNLAWYQQKPGQAPRLLIYGASTRATGIPARFSGSGSGTEFTLTISSLQSEDFAVYYCQQYYNWPLTFGGGTKVEIK
B6: H2M2779N (antibody, V domains shown)
VH: EVQLVESGGGLVQPGGSLRLSCAATGFTFDDFTMHWVRQAPGKGLEWVSGISWNSGSIGYVDSVKGRFTISRDNAKNSLYLQMNSLRAEDTALYYCAKDNSGYGYYYYGMDVWGQGTTVTVSS
VL: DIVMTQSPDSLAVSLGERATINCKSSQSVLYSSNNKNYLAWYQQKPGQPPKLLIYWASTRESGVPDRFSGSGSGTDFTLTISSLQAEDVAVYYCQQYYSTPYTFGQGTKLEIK
B7: H2M2706N (antibody, mouse IgG2, V domains shown)
VH: QVQLVESGGGVVQPGRSLRLSCAASGFTFRSYAMHWVRQAPGKGLEWVAMVYYDGNNQYYADSVRGRFTISRDNSKNTLYLQMNSLRADDTAVYFCARGPGYNWLDPWGQGTLVTVSS
VL: EIVMTQSPATLSVSPGERATLSCRASQSVSRNLAWYQQKPGQAPRLLIYGASTRATGIPARFSGSGSGTDFTLTISSLQSEDFAVYYCQQYNNWPLTFGGGTKVVIK
B8: H2M2708N (antibody, mouse IgG2, V domains shown)
VH: QVQLVESGGGVVQPGRSLRLSCAASGFTFRSFGMHWVRQAPGRGLEWVAMIYFDGKNKYYADSVRGRFTISRDNSKNTLYLEMSSLRAEDTAVYFCARGPGYNWLDPWGQGTLVTVSS
VL: EIVMTQSPATLSVSPGERVTLSCRASQSISRNLAWYQQKPGQAPRLLIYGASTRATGVPARFSGSGSGTEFTLTISSLQSEDFAVFHCQQYNNRPLTFGGGTEVEIK
B9: H2M2777N (antibody, mouse IgG2, V domains shown)
VH: QVQLVESGGGVVQPGRSLRLSCIASGFTFRSYGMHWVRQAPGKGLEWVAMIYYDGNNKYYADSVRGRFTISRDNSKNTLYLQMNSLRADDTAVYFCARGPGYNWLDPWGQGTLVTVSS
VL: EIVMTQSPATLSVSPGERATLSCRASQSVSSNLAWYQQKPGQAPRLLIYGASTRATGIPARFSGSGSGTEFTLTISSLQSEDFAVYYCQQYNNRPLTFGGGTKVEIK
B10: H2M2691N (antibody, mouse IgG2, V domains shown)
VH: EVQLVESGGGLVQPGRSLRLSCAASGFTFDDYTMHWVRQAPGKGLEWVSGISWNSGSIGYADSVKGRFTISRDNAKKSLYLQMNSLRAEDTALYYCAKDNSGYGHYYYGMDVWGQGTTVTVAS
VL: EIVMTQSPATLSVSPGERATLSCRASQSVSSNLAWYQQKPGQAPRLLIYGASTRATGIPARFSGSGSGTEFTLTISSLQSEDFAVYYCQHYINWPLTFGGGTKVEIK
B11: H2M2707N (antibody, mouse IgG2, V domains shown)
VH: QVQLVESGGGVVQPGRSLRLSCIASGFTFRSYGMHWVRQAPGKGLEWVAMIYYDGNNKYYADSVRGRFTISRDNSKNTLYLQMNSLRADDTAVYFCARGPGYNWLDPWGQGTLVTVSS
VL: EIVMTQSPATLSVSPGERATLSCRASQSVSSNLAWYQQKPGQAPRLLIYGASTRATGIPARFSGSGSGTEFTLTISSLQSEDFAVYYCQQYNNRPLTFGGGTKVEIK
B12: H2M2886N (antibody, mouse IgG2, V domains shown)
VH: QVQLVESGGGVVQPGRSLRLSCAASGFTFRSFGMHWVRQAPGRGLEWVAMIYFDGKNKYYADSVRGRFTISRDNSKNTLYLEMSSLRAEDTAVYFCARGPGYNWLDPWGQGTLVTVSS
VL: EIVMTQSPATLSVSPGERVILSCRASQSISRNLAWYQQKPGQAPRLLIYGATTRATGVPARFSGSGSGTEFTLTISSLQSEDFAVFYCQQYNNRPLTFGGGTEVEIK
B13: H2M2885N (antibody, mouse IgG2, V domains shown)
VH: QVQLVESGGGVVQPGRSLRLSCAASGFTFRSFGMHWVRQAPGRGLEWVAMIYFDGKNKYYADSVRGRFTISRDNSKNTLYLEMSSLRAEDTAVYFCARGPGYNWLDPWGQGTLVTVSS
VL: EIVMTQSPATLSVSPGERVILSCRASQSISRNLAWYQQKPGQAPRLLIYGATTRATGVPARFSGSGSGTEFTLTISSLQSEDFAVFYCQQYNNRPLTFGGGTEVEIK
B14: H2M2710N (antibody, V domains shown)
VH: QVQLVESGGGVVQPGRSLRLSCAASGFTFRSFGMHWVRQAPGRGLEWVAMIYFDGKNKYYADSVRGRFTISRDNSKNTLYLEMSSLRAEDTAVYFCARGPGYNWLDPWGQGTLVTVSS
VL: EIVMTQSPATLSVSPGERATLSCRASQSVSRNLAWYQQKPGQAPRLLIYGASTRATGVPARFSGSGSGTEFTLTISSLQSEDFAVFHCQQYNNRPLTFGGGTEVEIK
B15: H2M2775N (antibody, mouse IgG2, V domains shown)
VH: QVQLVESGGGVVQPGRSLRLSCAASGFTFRSFGMHWVRQAPGRGLEWVAMIYFDGKNKYYADSVRGRFTISRDNSKNTLYLEMSSLRAEDTAVYFCARGPGYNWLDPWGQGTLVTVSS
VL: EIVMTQSPATLSVSPGERVILSCRASQSISRNLAWYQQKPGQAPRLLIYGATTRATGVPARFSGSGSGTEFTLTISSLQSEDFAVFYCQQYNNRPLTFGGGTEVEIK
B16: H2M2711N (antibody, V domains shown)
VH: QVQLVESGGGVVQPGRSLRLSCAASGFTFRSFGMHWVRQAPGRGLEWVAMIYFDGKNKYYADSVRGRFTISRDNSKNTLYLEMSSLRAEDTAVYFCARGPGYNWLDPWGQGTLVTVSS
VL: EIVMTQSPATLSVSPGERATLSCRASQSVSRNLAWYQQKPGQAPRLLIYGASTRATGVPARFSGSGSGTEFTLTISSLQSEDFAVFHCQQYNNRPLTFGGGTEVEIK
B17: H2M3540N (antibody, mouse IgG2, V domains shown)
VH: QVHLEESGGGVVQPGRSLRLSCSASGFTFSSYAMHWVRQAPGKGLEWVAVIWYDGTNKYYLDSVKGRFTISRDNSKNTLFLQMNSLRAEDTAVYYCARDRGSIITHWGQGTLVTVSS
VL: DIQMTQSPSSLSASIGDRVTITCRASQNISSYLNWYQQKPGKAPKLLIYAASSLQSGVPSRFSGSGSGTDFTLTISSLQPEDFATYYCQQTYSTPPITFGQGTRLEIK
B18: H2M3543N (antibody, mouse IgG2, V domains shown)
VH: EVQLVESGGGLVQPGRSLRLSCAASGFTFDDYTMHWVRQAPGKGLEWVSDISWNSGSIGYADSVKGRFTVSRDNAKNSLYLQMNSLRGEDTALYYCAKDMSGYAHYGYYGMDVWGQGTTVTVSS
VL: DIQMTQSPSSLSASVGDRVTITCRASQSIRNYLNWYQQKPGKVPKLLIYAASSLQSGVPSRFSGSGSGTDFTLTISSLQPEDFATYYCQQSYSNPPITFGQGTRLEIK
B19: H2M3541N (antibody, mouse IgG2, V domains shown)
VH: EVQLVESGGGLVRPGRSLRLSCAASGFTFDDYTMHWVRQAPGKGLEWVSDISWNSGTIGYADSVKGRFTISRDNAKNSLYLQMNSLRPEDTALYYCAKDMSGYAHYYYYGMDVWGQGTTVTVSS
VL: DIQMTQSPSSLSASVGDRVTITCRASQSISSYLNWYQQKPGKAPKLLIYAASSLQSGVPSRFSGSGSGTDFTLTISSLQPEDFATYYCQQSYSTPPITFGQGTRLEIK
B20: H1M3542N (antibody, mouse IgG1, V domains shown)
VH: EVQLVESGGGLVQPGRSLRLSCVASGFPFADYTMHWVRQAPGKGLEWVSDISWNSGSKGYADSVKGRFTISRDNAKNSLYLQMNSLRTEDTAFYYCAKDMSGYAHYFYYGMDVWGQGTTVTVSS
VL: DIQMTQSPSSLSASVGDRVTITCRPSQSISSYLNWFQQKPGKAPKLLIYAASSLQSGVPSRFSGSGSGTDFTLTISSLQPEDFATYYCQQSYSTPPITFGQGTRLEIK
B21: H2M3548N (antibody, mouse IgG2, V domains shown)
VH: EVQLVESGGGLVQPGRSLRLSCAASGFKFADYAMHWVRQAPGKGLEWVSEISWNSGSIGYVDSVKGRFTISRDNAKNSLYLQMNSLRAEDTALYYCVKDKSGYGHYYIGMDVWGQGTTVIVSS
VL: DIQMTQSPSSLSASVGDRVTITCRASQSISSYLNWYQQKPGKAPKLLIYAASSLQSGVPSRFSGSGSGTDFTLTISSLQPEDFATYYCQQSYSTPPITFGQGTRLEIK
B22: H2M3547N (antibody, mouse IgG2, V domains shown)
VH: EAQLVESGGGLVQPGRSLRLSCTTSGFTFDDYTMHWVRQAPGKGLEWISDISWNGGTKGYADSVKGRFTISRDNAKNSLYLQMDSLRGEDTALYYCVKDKSGYGHFYFGLDVWGQGTTVTVSS
VL: DIQMTQSPSSLTASVGDRVTFTCRASQSISRHLSWYQQKPGKAPKLLIYAASSLESGVPSRFSGSGSGTDFTLTISSLHPEDFATYYCQQSYSNPPITFGQGTRLEIK

Target: T1, human CD3 expressed on cells (Jurkat, a …)
Experiment: cell-based or functional assay

Binder	U937 Cytotoxicity Human T-cells [M] (EC50)
B1	2.79e-11
B2	7.66e-12
B3	3.14e-10
B4	2.46e-12
B5	3.59e-10
B6	6.75e-10
B7	7.91e-12
B8	3.27e-12
B9	4.86e-12
B10	2.34e-11
B11	7.21e-12
B12	8.06e-12
B13	3.71e-12
B14	3.97e-12
B15	3.38e-12
B16	3.66e-12
B17	1.25e-11
B18	1.31e-11
B19	5.39e-11
B20	2.92e-11
B21	5.5e-12
B22	3.17e-11
